Here are results for two molecules from article PMC5411712.

The target of series [1] is T1, SRF (rSRF);PTEN (rPTEN) (;, UniProt P11831;P60484 1-508;1-403, |). Description: EMSA; lower mobility complex on adding rPTEN; 10 mM Tris pH 8.0, 1 mM EDTA, 8% glycerol, 10 ul, ~150 ng fluorescein-labelled DNA, 1 h at room temperature; 4-20% Tris-glycine native gel, pH 8.3.
Series [2] has as its target T2, SRF (rSRF) (UniProt P11831 1-508).
T2 sequence: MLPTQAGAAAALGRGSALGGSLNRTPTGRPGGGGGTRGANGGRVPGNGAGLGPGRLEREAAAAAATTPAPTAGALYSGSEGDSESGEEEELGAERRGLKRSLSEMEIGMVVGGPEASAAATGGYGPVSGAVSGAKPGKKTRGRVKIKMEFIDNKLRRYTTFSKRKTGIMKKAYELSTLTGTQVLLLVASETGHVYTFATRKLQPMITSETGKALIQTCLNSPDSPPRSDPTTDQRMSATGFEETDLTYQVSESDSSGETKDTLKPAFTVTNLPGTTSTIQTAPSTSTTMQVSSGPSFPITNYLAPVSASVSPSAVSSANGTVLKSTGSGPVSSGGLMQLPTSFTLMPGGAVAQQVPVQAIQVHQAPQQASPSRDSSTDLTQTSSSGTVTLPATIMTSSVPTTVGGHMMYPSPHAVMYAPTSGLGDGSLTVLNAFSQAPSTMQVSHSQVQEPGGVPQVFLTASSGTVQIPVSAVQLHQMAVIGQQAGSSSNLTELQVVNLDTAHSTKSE
The experiment in a line: EMSA; 10 mM Tris pH 8.0, 1 mM EDTA, 8% glycerol, 10 ul, ~150 ng fluorescein-labelled DNA, 1 h at room temperature; 4-20% Tris-glycine native gel, pH 8.3. For orientation: In EMSA bound probe runs differently from free probe, usually more slowly.

Another series concerns the target PTEN (rPTEN) (UniProt P60484 1-403). Description: EMSA; rPTEN alone; 10 mM Tris pH 8.0, 1 mM EDTA, 8% glycerol, 10 ul, ~150 ng fluorescein-labelled DNA, 1 h at room temperature; 4-20% Tris-glycine native gel, pH 8.3.
Series [3] has as its target T1, SRF (rSRF);PTEN (rPTEN). The experiment in a line: EMSA, supershift and western blot of EMSA; higher mobility complex than rSRF alone; supershifted by PTEN or SRF antibody; 10 mM Tris pH 8.0, 1 mM EDTA, 8% glycerol, 10 ul, ~150 ng fluorescein-labelled DNA, 1 h at room temperature; 4-20% Tris-glycine native gel, pH 8.3.
Series [4] deals with T2, SRF (rSRF). Description: EMSA; two bands at 1 ul rSRF; single lower mobility band at saturating 3 ul; 10 mM Tris pH 8.0, 1 mM EDTA, 8% glycerol, 10 ul, ~150 ng fluorescein-labelled DNA, 1 h at room temperature; 4-20% Tris-glycine native gel, pH 8.3.

B1: CArG B 20-bp probe (Acta2) (dsDNA)
DNA 1: GAGGTCCCTATATGGTTGTG
DNA 2: CACAACCATATAGGGACCTC
On to B1, for which the binding result with SRF (rSRF);PTEN (rPTEN) [1] and with SRF (rSRF) [2] was “binds” in each case.

B2: CArG A+B 95-bp probe (Acta2) (dsDNA)
DNA 1: AATTCTGGGGTGTATCTTGCCCTATATGGGATATCGCTCTGACCGTTAACTAGGACTAGCTGAGGGTAGCCTTGTTTGGCTGCATCTGTTTCTTTTCGGCTAGC
DNA 2: GCTAGCCGAAAAGAAACAGATGCAGCCAAACAAGGCTACCCTCAGCTAGTCCTAGTTAACGGTCAGAGCGATATCCCATATAGGGCAAGATACACCCCAGAATT
For B2, the binding result in the series with PTEN (rPTEN) is on record as “no binding”; with SRF (rSRF);PTEN (rPTEN) [3], “binds”; in the series with SRF (rSRF) [4], “binds”.
